Results published in publication PMC5240567, “New Insights into Cooperative Binding of Homeodomain Transcription Factors PREP1 and PBX1 to DNA”.

Key:
PREP1hd [1] = molecular target: T1, PREP1hd (UniProt P55347); assay: fluorescence polarization; conditions: FP and EMSA: 20 mM Na/K phosphate pH 7.2, 150 mM NaCl, 5% glycerol, 1 mM TCEP, room temperature (FP 9 nM DNA, 30 min; EMSA gel run at 4 C in 0.5x TBE); NMR: …
T1 sequence: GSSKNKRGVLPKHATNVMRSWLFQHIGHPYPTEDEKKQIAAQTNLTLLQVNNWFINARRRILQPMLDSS

PBX1HD = molecular target: T2, PBX1HD (UniProt P40424 227-317); assay: fluorescence polarization; FP and EMSA: 20 mM Na/K phosphate pH 7.2, 150 mM NaCl, 5% glycerol, 1 mM TCEP, room temperature (FP 9 nM DNA, 30 min; EMSA gel run at 4 C in 0.5x TBE); NMR: 20; conditions: protein: recombinant, tags: GST cleaved (pGEX-6P)
T2 sequence: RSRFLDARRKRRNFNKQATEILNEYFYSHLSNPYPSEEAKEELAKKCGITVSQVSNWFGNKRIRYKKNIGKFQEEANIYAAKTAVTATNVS

PREP1hd [2] = molecular target: T3, PREP1hd (UniProt P55347 257-325); assay: as above; conditions: protein: recombinant, tags: GST cleaved (pGEX-6P), label: 5' 6-FAM (FP)
T3 sequence: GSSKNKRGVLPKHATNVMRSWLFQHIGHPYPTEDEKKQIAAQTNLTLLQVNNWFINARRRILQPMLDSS

PREP1HD [3] = molecular target: T4, PREP1HD (UniProt P55347 240-344); assay: as above; conditions: protein: recombinant, tags: GST cleaved (pGEX-6P), label: 5' 6-FAM (FP)
T4 sequence: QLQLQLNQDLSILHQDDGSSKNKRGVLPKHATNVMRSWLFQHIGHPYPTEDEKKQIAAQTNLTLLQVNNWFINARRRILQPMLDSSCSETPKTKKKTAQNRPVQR

HOXB1HD [4] = molecular target: T5, HOXB1HD (UniProt P14653 171-266); assay: as above; conditions: protein: recombinant, tags: GST cleaved (pGEX-6P), label: 5' 6-FAM (FP)
PREP1hd-C = molecular target: T6, PREP1hd-C (UniProt P55347 257-344); assay: as above; conditions: protein: recombinant; tags: GST cleaved (pGEX-6P); label: 5' 6-FAM (FP); unlabeled in EMSA and NMR
T6 sequence: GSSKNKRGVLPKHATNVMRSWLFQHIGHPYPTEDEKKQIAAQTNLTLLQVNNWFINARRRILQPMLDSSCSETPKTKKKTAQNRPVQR

PREP1hd-N = molecular target: T7, PREP1hd-N (UniProt P55347 240-325); assay: as above; conditions: protein: recombinant; tags: GST cleaved (pGEX-6P); label: 5' 6-FAM (FP); unlabeled in EMSA and NMR
T7 sequence: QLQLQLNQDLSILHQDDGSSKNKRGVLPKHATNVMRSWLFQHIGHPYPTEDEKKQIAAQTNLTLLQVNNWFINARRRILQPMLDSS

HOXB1HD [5] = molecular target: T5, HOXB1HD; assay: EMSA; FP and EMSA: 20 mM Na/K phosphate pH 7.2, 150 mM NaCl, 5% glycerol, 1 mM TCEP, room temperature (FP 9 nM DNA, 30 min; EMSA gel run at 4 C in 0.5x TBE); NMR: 20; conditions: protein: recombinant; tags: GST cleaved (pGEX-6P); label: 5' 6-FAM (FP); unlabeled in EMSA
[6] = label: 5' 6-FAM (FP), unlabeled in EMSA

T5 sequence (P14653 171-266): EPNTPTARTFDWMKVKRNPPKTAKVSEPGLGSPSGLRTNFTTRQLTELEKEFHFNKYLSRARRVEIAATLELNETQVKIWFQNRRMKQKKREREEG

## AGGATAACCTGGGATT (double strand) [Control]
PREP1hd [1]
  Kd: 836 µM

B1: PH (dsDNA)
DNA 1: AGAGTGATTGATAAGG
DNA 2: CCTTATCAATCACTCT
PBX1HD; [6]
  Kd: 2.1 ± 0.3 µM
PREP1hd [2]; unlabeled in EMSA
  Kd: 51.4 ± 2.5 µM
PREP1HD [3]; unlabeled in EMSA
  Kd: 23.5 ± 2 µM
HOXB1HD [4]; unlabeled in EMSA
  Kd: 6.2 ± 0.1 µM

B2: PH* (dsDNA)
DNA 1: AGAGTGATTGATCGGC
DNA 2: GCCGATCAATCACTCT
PBX1HD; label: 5' 6-FAM
  Kd: 3.3 ± 0.5 µM

B3: Control* (dsDNA)
DNA 1: CGTCAGCCCTACGGGA
DNA 2: TCCCGTAGGGCTGACG
PBX1HD; label: 5' 6-FAM
  Kd: 2.1 ± 0.1 µM

B4: PMH (dsDNA)
DNA 1: AGTGATTGACAGATTC
DNA 2: GAATCTGTCAATCACT
PBX1HD; label: 5' 6-FAM (FP), unlabeled in EMSA and NMR
  Kd: 0.36 ± 0.1 µM
PREP1hd [2]; unlabeled in EMSA and NMR
  Kd: 31.8 ± 1.5 µM
PREP1hd-C
  Kd: 15.5 ± 0.6 µM
PREP1HD [3]; unlabeled in EMSA and NMR
  Kd: 15.4 ± 1 µM
PREP1hd-N
  Kd: 23.7 ± 2.6 µM
HOXB1HD [4]; unlabeled in EMSA and NMR
  Kd: 2.7 ± 0.2 µM

B5: Control (dsDNA)
DNA 1: AGGATAACCTGGGATT
DNA 2: AATCCCAGGTTATCCT
PBX1HD; [6]
  Kd: 2.5 ± 0.4 µM
PREP1HD [3]; unlabeled in EMSA
  Kd: 159 ± 5.2 µM
HOXB1HD [5]
  binding result: binds
